# Reference: paper PMC4622054
# Read-outs that look alike come from different tables or passages of the source.
# How the values were obtained:
# [1] = molecular target: Human FcRn (hFcRn), soluble α-chain/β2m heterodimer (human) (UniProt P55899); assay: BLI
# [2] = molecular target: Human FcRn (hFcRn), soluble α-chain/β2m heterodimer (human) (UniProt P55899); assay: BLI; hFcRn-loaded surface; human IgG1 as analyte, association at pH 6.0 and dissociation at pH 6.0
# [3] = molecular target: Human FcRn (hFcRn), soluble α-chain/β2m heterodimer (human) (UniProt P55899); assay: BLI; remark: listed apart in the source
# [4] = molecular target: Human FcRn (hFcRn), soluble α-chain/β2m heterodimer, P55899;P61769; assay: BLI (in vitro BLI-based FcRn platform); settings: parent: est. 270; read off a plot
# [5] = molecular target: CDA1 (actoxumab), human IgG1 monoclonal antibody (UniProt P01857); assay: biolayer interferometry (Octet QK, ForteBio); settings: 30°C, PBS (composition and salt concentration not stated), PBS adjusted to pH 6.0 with HCl for the acidic steps, PBS pH 7.5 for the physiological-pH steps
# Chain of Human FcRn (hFcRn), soluble α-chain/β2m heterodimer (human) (P55899 34-290, chain 1 of 2): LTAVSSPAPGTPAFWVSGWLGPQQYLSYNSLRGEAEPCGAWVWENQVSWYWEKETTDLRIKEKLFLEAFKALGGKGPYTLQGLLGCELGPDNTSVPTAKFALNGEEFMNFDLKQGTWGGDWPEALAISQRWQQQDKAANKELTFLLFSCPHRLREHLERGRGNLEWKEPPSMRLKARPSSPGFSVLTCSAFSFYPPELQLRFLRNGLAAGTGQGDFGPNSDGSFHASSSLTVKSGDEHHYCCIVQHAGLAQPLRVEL
# Chain of Human FcRn (hFcRn), soluble α-chain/β2m heterodimer (human) (P61769 21-119, chain 2 of 2, further chain): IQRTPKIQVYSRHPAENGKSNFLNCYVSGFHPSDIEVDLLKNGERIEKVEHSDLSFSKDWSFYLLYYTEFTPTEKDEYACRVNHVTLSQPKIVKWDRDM
substance,measurement,setting,value
"CDA1 (actoxumab), fully human IgG1 mAb (antibody)",fold change FcRn binding rate,[1],1.14 fold
same,fold change of the association rate against RAB1,[1],1.09 fold
same,fold change of the dissociation rate against CDB1,[1],1.18 fold
same,koff,[1],0.0906 s⁻¹
same,fold slower off-rate at pH 6.0 than at pH 7.5,[2],5 fold
same,koff,[3],0.101 s⁻¹
"HCV1, fully human IgG1 mAb HCV (with CDA VH CDRs and CDB Vk CDRs): VH CDR1-3 of HCV1 replaced by VH CDRs of CDA1; Vk CDR1-3 of HCV1 replaced by Vk CDRs of CDB1; residues not printed","other: Predicted Human t1/2, β",[4],27.1 days
soluble human neonatal Fc receptor (hFcRn; alpha-chain/beta2-microglobulin heterodimer),average association rate (apparent kon),[5]; pH 6.0,0.2087 ± 0.0036 s⁻¹
same,kon (apparent association rate),[5]; pH 6.0,0.110 s⁻¹
same,average dissociation rate (koff),[5]; pH 7.5,0.0906 ± 0.0034 s⁻¹
same,koff,[5]; pH 7.5,0.101 s⁻¹
